Results published in article PMC11108154.
Where “and” joins values, the source holds several entries; their conditions need not be identical. Equal entries are not always repeated.

How the values were obtained:
[1] = target: ELI-glucagon (Eli Lilly's Glucagon, recombinant, reference listed drug) (UniProt P01275); assay: SEC; SEC-HPLC of recently released lots; Phenomenex Yarra 3 um SEC-2000, isocratic 55% 0.1% TFA / 45% acetonitrile, 1.000 mL/min, ambient temperature, UV 214 nm; reconstituted with the included diluent and tested immediately; monomer and dimer told by a calibration curve
[2] = target: ELI-glucagon (Eli Lilly's Glucagon, recombinant, reference listed drug) (UniProt P01275); assay: SEC; SEC-HPLC of expired lots (end of shelf life); Phenomenex Yarra 3 um SEC-2000, isocratic 55% 0.1% TFA / 45% acetonitrile, 1.000 mL/min, ambient temperature, UV 214 nm; reconstituted with the included diluent and tested immediately; monomer and dimer told by a calibration curve
[3] = target: AMP-glucagon (generic synthetic glucagon for injection, Amphastar Pharmaceuticals) (UniProt P01275); assay: as above

Row | % Dimer by SEC-HPLC [1] | stoichiometry N [1] | % Dimer by SEC-HPLC [2] | stoichiometry N [2] | % Dimer by SEC-HPLC [3] | stoichiometry N [3] | Substance
1 | 0.04% and 0.042% and 0.038% | 2 | 0.133% and 0.097% and 0.144% | 2 | – | – | ELI-glucagon (Eli Lilly's Glucagon, recombinant, reference listed drug) (from UniProt P01275 53-81) (peptide)
2 | – | – | – | – | 0.062% and 0.08% and 0.115% | 2 | AMP-glucagon (generic synthetic glucagon for injection, Amphastar Pharmaceuticals) (from UniProt P01275 53-81) (peptide)
